In patent publication US20220233650A1:

Target: recombinant Factor VIII Fc fusion protein (rFVIIIFc) (human) [IgG part: P0DOX5]
Assay: cell-based or functional assay

- percent of cells characterized as osteoclasts at day 7 after rFVIIIFc together with VWF (14.2% with rFVIIIFc alone): 45.7%
Substance: von Willebrand Factor (VWF) (from UniProt P04275 764-2813)
